B1: Carboxypeptidase Y (Saccharomyces cerevisiae), P00729 (parent)
chain: MKAFTSLLCGLGLSTTLAKAISLQRPLGLDKDVLLQAAEKFGLDLDLDHLLKELDSNVLDAWAQIEHLYPNQVMSLETSTKPKFPEAIKTKKDWDFVVKNDAIENYQLRVNKIKDPKILGIDPNVTQYTGYLDVEDEDKHFFFWTFESRNDPAKDPVILWLNGGPGCSSLTGLFFELGPSSIGPDLKPIGNPYSWNSNATVIFLDQPVNVGFSYSGSSGVSNTVAAGKDVYNFLELFFDQFPEYVNKGQDFHIAGESYAGHYIPVFASEILSHKDRNFNLTSVLIGNGLTDPLTQYNYYEPMACGEGGEPSVLPSEECSAMEDSLERCLGLIESCYDSQSVWSCVPATIYCNNAQLAPYQRTGRNVYDIRKDCEGGNLCYPTLQDIDDYLNQDYVKEAVGAEVDHYESCNFDINRNFLFAGDWMKPYHTAVTDLLNQDLPILVYAGDKDFICNWLGNKAWTDVLPWKYDEEFASQKVRNWTASITDEVAGEVKSYKHFTYLRVFNGGHMVPFDVPENALSMVNEWIHGGFSL
partner: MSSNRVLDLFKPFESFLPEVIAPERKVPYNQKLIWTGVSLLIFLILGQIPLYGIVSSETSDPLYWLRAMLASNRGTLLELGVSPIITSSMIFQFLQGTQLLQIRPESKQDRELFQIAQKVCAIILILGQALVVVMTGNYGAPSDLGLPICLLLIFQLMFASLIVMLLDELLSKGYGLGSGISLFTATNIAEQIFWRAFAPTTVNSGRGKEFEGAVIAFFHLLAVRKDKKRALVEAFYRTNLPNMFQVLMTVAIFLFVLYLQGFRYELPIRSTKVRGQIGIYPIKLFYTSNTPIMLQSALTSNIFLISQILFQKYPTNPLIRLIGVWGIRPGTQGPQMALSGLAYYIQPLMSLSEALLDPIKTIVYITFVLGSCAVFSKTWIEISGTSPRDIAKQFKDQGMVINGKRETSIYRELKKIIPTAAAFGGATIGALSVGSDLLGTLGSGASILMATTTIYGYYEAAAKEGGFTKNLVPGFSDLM

Variants of: B1
Conditions: with sc61a_yeast SEC61, P32915

| Variant | effect of a mutation on the interaction |
| --- | --- |
| MKAFTSLLCGLGLSTTLAKAISLQRPLGLDKDVLLQAAEKFGLDLDLDHLLKELDSNVLDAWAQIEHLYPNQVMSLETSTKPKFPEAIKTKKDWDFVVKNDAIENYQLRVNKIKDPKILGIDPNVTQYTGYLDVEDEDKHFFFWTFESRNDPAKDPVILWLNGGPGCSSLTGLFFELGPSSIGPDLKPIGNPYSWNSNATVIFLDQPVNVGFSYSGSSGVSNTVAAGKDVYNFLELFFDQFPEYVNKGQDFHIARESYAGHYIPVFASEILSHKDRNFNLTSVLIGNGLTDPLTQYNYYEPMACGEGGEPSVLPSEECSAMEDSLERCLGLIESCYDSQSVWSCVPATIYCNNAQLAPYQRTGRNVYDIRKDCEGGNLCYPTLQDIDDYLNQDYVKEAVGAEVDHYESCNFDINRNFLFAGDWMKPYHTAVTDLLNQDLPILVYAGDKDFICNWLGNKAWTDVLPWKYDEEFASQKVRNWTASITDEVAGEVKSYKHFTYLRVFNGGHMVPFDVPENALSMVNEWIHGGFSL [G255R] | increasing interaction |
